# In article PMC12603206, “The sensitive and selective electrochemical detection of carcinoembryonic antigen using a nanoMIPs-aptamer sandwich assay”:
# Target: Carcinoembryonic antigen (CEA) (UniProt P06731 35-685)
# Assay: electrochemical nanoMIPs-aptamer sandwich assay (SWASV of Pb2+); CEA captured on nanoMIPs electrode; aptamer on MOF-Pb probe; linear 1-1000 ng/mL, LOD 1.4 ng/mL (sensor values, not Kd); CEA in 0.01 M PBS pH 7.4, 1 h on nanoMIPs electrode, PBS/0.05% TWEEN20 wash; MOF-Pb-Apt probe (stored in 10 mM Tris-HCl pH 7.4) 30 min; temperature not stated
# Conditions: protein: commercial
# Sequence of Carcinoembryonic antigen (CEA) (P06731 35-685): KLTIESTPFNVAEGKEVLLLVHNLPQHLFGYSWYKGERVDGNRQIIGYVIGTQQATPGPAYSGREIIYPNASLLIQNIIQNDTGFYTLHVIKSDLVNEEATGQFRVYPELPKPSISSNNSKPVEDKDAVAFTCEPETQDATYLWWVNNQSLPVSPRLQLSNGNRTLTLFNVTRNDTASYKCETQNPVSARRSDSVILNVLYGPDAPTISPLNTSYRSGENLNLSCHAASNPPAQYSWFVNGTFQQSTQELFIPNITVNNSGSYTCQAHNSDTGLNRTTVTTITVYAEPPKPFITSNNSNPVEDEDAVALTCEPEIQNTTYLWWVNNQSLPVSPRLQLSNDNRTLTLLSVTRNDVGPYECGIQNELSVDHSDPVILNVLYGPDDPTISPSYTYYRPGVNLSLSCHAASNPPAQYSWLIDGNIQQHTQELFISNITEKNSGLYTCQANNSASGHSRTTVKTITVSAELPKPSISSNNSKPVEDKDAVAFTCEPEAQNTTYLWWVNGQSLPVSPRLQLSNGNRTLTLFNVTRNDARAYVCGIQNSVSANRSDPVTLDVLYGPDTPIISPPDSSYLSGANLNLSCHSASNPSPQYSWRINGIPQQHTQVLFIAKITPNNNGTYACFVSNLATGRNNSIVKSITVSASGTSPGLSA
binder,measurement,value
"ATACCAGCTTATTCAATT (ssDNA, 5'-phosphate-C6) [CEA-specific aptamer]",binding result,binds
